Where two headings read alike, the source gives them in different places.
Columns and labels:
[1] = TLC analysis of product formation after PI-3,4,5-P3 hydrolysis; format: biochemical; settings: 0.5 μM CdtB or 0.1 μM PTEN, FIG. 3 inset
Description: Analysis of CdtB-Mediated Product Formation
Inositol lipids were separated by thin layer chromatography. Silica gel G plates were dipped in boric acid (5% in methanol) and then dried. They were then spotted with the lipid samples dissolved in chloroform/methanol/water (1/2/0.1) together with solutions containing the standard inositol lipids phosphatidyl 4,5 bisphosphate, phosphatidyl 3,4 bisphosphate, phosphatidyl 3,5bis phosphate, phosphatidyl 3,4,5 trisphosphate, and phosphatidyl inositol. The plates were eluted with solutions containing propyl acetate/isopropanol/ethanol/ammonia/water (15/45/16/9/35), dried, and sprayed with solution containing CuSO4/H3PO4 (8%/10%), and air dried again. Plates were then heated to 70° C. then to 155° C. to visualize the lipids.

[2] = Substrate specificity with phosphoinositides in liposomes; format: biochemical; settings: 0.5 μM CdtB, 0.1 μM PTEN; 30 min; liposomes with phosphatidylserine carrier; FIG. 3
Method: Phosphatase activity was assessed by monitoring the dephosphorylation of PI-3,4,5-P3 as described by Maehama et al [Maehama, T., G. Taylor, J. Slama, and J. Dixon. 2000. A sensitive assay for phosphoinositide phosphatases. Analytical Biochemistry 279:248-2501. Briefly, the reaction mixture (20 μl) consisted of 100 mM Tris-HCl (pH 8.0), 10 mM dithiothreitol, 0.5 mM diC16-phosphatidylserine (Avanti), 25 μM PI-3,4,5-P3 (diC16; Echelon) and the indicated amount of CdtB, CdtABC or PTEN (kindly provided by Gregory Taylor). Appropriate amounts of lipid solutions were deposited in 1.5 ml tubes, organic solvent removed, the buffer added and a lipid suspension formed by sonication. For experiments to determine substrate specificity, PI-3,4,5-P3 was replaced by the indicated phosphatidylinositol phosphate (Echelon). Phosphatase assays were carried out at 37° C. for 30 min; the reactions were terminated by the addition of 15 μl of 100 mM N-ethylmaleimide. Inorganic phosphate levels were then measured using a malachite green assay. […] Absorbance at 650 nm was measured and phosphate release quantified by comparison to inorganic phosphate standards.
CdtB substrate specificity was assessed using several different phosphoinositides (PI). […] In order to determine whether CdtB is a 3- or 5-phosphatase, product formation was assessed using thin layer chromatography. […]

[3] = format: biochemical
[4] = tested on: Jurkat cells; format: cell-based, human; settings: 16 hr
[5] = tested on: CdtB; assay: Effect of phosphatase inhibitors on CdtB-mediated hydrolysis of PI-3,4,5-P3; format: biochemical, A. actinomycetemcomitans; settings: for reduction of CdtB phosphatase activity: 0.5 μM CdtB, 30 min
Method: CdtB (0.5 μM; triangles) and PTEN (0.1 μM; circles) were incubated with liposomes containing PI-3,4,5-P3 in the presence of varying concentrations of tungstate or orthovanadate for 30 min. Phosphate release was measured using the malachite green binding assay. Results are plotted as phosphate release (nmol/30 min; mean±S.D.) versus inhibitor concentration (mM);
Phosphatase activity was assessed by monitoring the dephosphorylation of PI-3,4,5-P3 as described by Maehama et al [Maehama, T., G. Taylor, J. Slama, and J. Dixon. 2000. A sensitive assay for phosphoinositide phosphatases. Analytical Biochemistry 279:248-2501. Briefly, the reaction mixture (20 μl) consisted of 100 mM Tris-HCl (pH 8.0), 10 mM dithiothreitol, 0.5 mM diC16-phosphatidylserine (Avanti), 25 μM PI-3,4,5-P3 (diC16; Echelon) and the indicated amount of CdtB, CdtABC or PTEN (kindly provided by Gregory Taylor). Appropriate amounts of lipid solutions were deposited in 1.5 ml tubes, organic solvent removed, the buffer added and a lipid suspension formed by sonication. For experiments to determine substrate specificity, PI-3,4,5-P3 was replaced by the indicated phosphatidylinositol phosphate (Echelon). Phosphatase assays were carried out at 37° C. for 30 min; the reactions were terminated by the addition of 15 μl of 100 mM N-ethylmaleimide. Inorganic phosphate levels were then measured using a malachite green assay. Malachite green solution (Biomol Green; Biomol) was added to […] of the enzyme reaction mixture and color was developed for 20 min at RT. Absorbance at 650 nm was measured and phosphate release quantified by comparison to inorganic phosphate standards.

[6] = tested on: Jurkat cells; format: cell-based, human
[7] = tested on: supercoiled pUC19 DNA; format: biochemical
[8] = Protein phosphatase activity with synthetic substrate; format: biochemical; settings: synthetic substrate pNPP
[9] = Dephosphorylation of inositol phosphates; format: biochemical
[10] = 30 min, read-out: ED0.5 [concentration required to catalyze 0.5 nmol phosphate release]

PTEN: Tumor suppressor phosphatase (phosphatase and tensin homolog deleted on chromosome ten), used for comparison [reference compound]
product formed from PI-3,4,5-P3 [1]: PI-(4,5)-P2
substrate specificity (phosphate release with phosphatidylinositol phosphates) [2]: substrate specificity for PI-(3,4,5)-P3 identical to CdtB
Km [3]: 159 µM
EC50 [3, 10]: 50 nM

O=c1cc(N2CCOCC2)oc2c(-c3ccccc3)cccc12 [LY290004]
Cdt-induced accumulation of G2 cells after pre-treatment [4]: 22.0%

[O]=[V]([O-])([O-])[O-] [orthovanadate]
reduction of CdtB phosphatase activity ([5]; 1 mM inhibitor): 10%
reduction of CdtB phosphatase activity ([5]; 10 mM inhibitor): 85%

[O]=[Mo](=[O])([O-])[O-] [molybdate]
inhibition of CdtB (in words) [5]: failed to inhibit

COC[C@H]1OC(=O)c2coc3c2[C@@]1(C)C1=C(C3=O)[C@@H]2CCC(=O)[C@@]2(C)C[C@H]1OC(C)=O [wortmannin]
Cdt-induced accumulation of G2 cells after pre-treatment [4]: 35%

[O]=[W](=[O])([O-])[O-] [tungstate]
reduction of CdtB phosphatase activity ([5]; 1 mM inhibitor): 15%
reduction of CdtB phosphatase activity ([5]; 10 mM inhibitor): 70%

B1: CdtB: Active B subunit of cytolethal distending toxin, SEQ ID NO: 3, expressed from pGEMCdtB (protein)
chain: NLSDFKVATWNLQGSSAVNESKWNINVRQLLSGEQGADILMVQEAGSLPSSAVRTSRVIQHGGTPIEEYTWNLGTRSRPNMVYIYYSRLDVGANRVNLAIVSRRQADEAFIVHSDSSVLQSRPAVGIRIGTDVFFTVHALATGGSDAVSLIRNIFTTFTSSPSSPERRGYSWMVVGDFNRAPVNLEAALRQEPAVSENTIIIAPTEPTHRSGNILDYAILHDAHLPRREQARERIGASLMLNQLRSQITSDHFPVSFVRDR
modifications: Actinobacillus actinomycetemcomitans
product formed from PI-3,4,5-P3 [1]: PI-(3,4)-P2
substrate specificity (phosphate release with phosphatidylinositol phosphates) [2]: only occurred in the presence of PI-3,4,5-P3
toxicity (G2 cell cycle arrest), dose response [6]: comparable activity
percentage of G2 cells ([6]; 18 hrs): 54.8%
Km [3]: 124 µM
PIP3 phosphatase activity (% CdtB^wt) [3]: 100 % CdtB^wt
EC50 [3, 10]: 500 nM
EC50 ([3]; read-out: ED0.5): 300 nM
DNase Activity (% CdtB^wt) [7]: 100 % CdtB^wt
DNase activity (in words) ([7]; 2 hrs at 37° C.): detectable nuclease activity although it was less than five orders of magnitude of that observed with bovine DNase I
protein phosphatase activity [8]: did not exhibit detectable protein phosphatase activity
dephosphorylation of inositol triphosphate or inositol tetrakisphosphate [9]: unable to dephosphorylate

Reference: patent US8110551B2 (priority 2008, dated 2012)
